Experiment [1] addresses T1, human ICAM-1 (immobilized, SPR) (human, UniProt P05362 28-480, limits assumed).
T1 construct: Form immobilized on the SPR chip is not described; also called Intercellular adhesion molecule-1; CD54
The experiment can be described thus: SPR, I domain over immobilized human ICAM-1.

Experiment [2] has as its target T2, recombinant human ICAM-1 fused to human Fcγ (R&D Systems) (human, UniProt P05362 28-480).
T2 construct: Bought reagent; also called ICAM-1-Fc; human ICAM-1-Fcγ; not shown: human Fcγ
Nature of the experiment: estimated from flow cytometry MFI of ICAM-1-Fc binding to yeast cells expressing the I domain variant.

Experiment [3] concerns the target T1, human ICAM-1 (immobilized, SPR). Nature of the experiment: comparison of the Table 1 affinities.
For experiment [4], the target named is human ICAM-1 on cells (HeLa, 8505C, 8505C/LPS, HMEC-1, T cells) (human) (UniProt P05362). Nature of the experiment: cell-based or functional assay.
For experiment [5], the target named is T1, human ICAM-1 (immobilized, SPR). The experiment can be described thus: SPR. (In general: SPR reads the build-up and loss of mass on a sensor chip optically.)
The next experiment deals with murine ICAM-1 (SPR) (murine, UniProt P13597 28-485, limits assumed). The experiment can be described thus: SPR, F265S/F292G flowed over murine ICAM-1 (FIG. 1C).
Experiment [6] deals with murine ICAM-1 on bEnd.3 cells (mouse) (UniProt P13597). The experiment can be described thus: cell-based or functional assay.
The target of experiment [7] is T3, human ICAM-1 on cells (HeLa, 8505C, 8505C/LPS, HMEC-1, T cells) (human, UniProt P05362 28-532).
T3 construct: whole, on cells
The experiment can be described thus: estimated from titrated R6.5 antibody binding to HeLa cells.

This is an account of results in patent US20180066035A1 (published 2018).

A word on the Kd: it is the constant that tells how readily two partners part at equilibrium.

Where only a bound is given, the exact number is not on record here.

human ICAM-1 on cells (HeLa, 8505C, 8505C/LPS, HMEC-1, T cells) (human), sequence (P05362 28-532): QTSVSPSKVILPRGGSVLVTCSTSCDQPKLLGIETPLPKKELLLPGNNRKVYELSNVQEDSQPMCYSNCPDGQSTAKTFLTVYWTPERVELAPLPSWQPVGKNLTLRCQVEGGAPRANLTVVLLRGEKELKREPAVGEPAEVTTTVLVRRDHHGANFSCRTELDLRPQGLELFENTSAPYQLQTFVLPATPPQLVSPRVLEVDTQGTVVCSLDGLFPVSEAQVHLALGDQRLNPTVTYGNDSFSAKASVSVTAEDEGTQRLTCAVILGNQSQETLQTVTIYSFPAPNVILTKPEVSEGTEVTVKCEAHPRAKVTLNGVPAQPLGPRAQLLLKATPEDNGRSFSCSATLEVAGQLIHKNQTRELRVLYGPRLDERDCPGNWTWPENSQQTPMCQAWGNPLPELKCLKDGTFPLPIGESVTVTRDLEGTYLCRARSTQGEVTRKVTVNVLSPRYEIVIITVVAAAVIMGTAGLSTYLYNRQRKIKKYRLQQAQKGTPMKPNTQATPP
T1 sequence (P05362 28-480 limits assumed): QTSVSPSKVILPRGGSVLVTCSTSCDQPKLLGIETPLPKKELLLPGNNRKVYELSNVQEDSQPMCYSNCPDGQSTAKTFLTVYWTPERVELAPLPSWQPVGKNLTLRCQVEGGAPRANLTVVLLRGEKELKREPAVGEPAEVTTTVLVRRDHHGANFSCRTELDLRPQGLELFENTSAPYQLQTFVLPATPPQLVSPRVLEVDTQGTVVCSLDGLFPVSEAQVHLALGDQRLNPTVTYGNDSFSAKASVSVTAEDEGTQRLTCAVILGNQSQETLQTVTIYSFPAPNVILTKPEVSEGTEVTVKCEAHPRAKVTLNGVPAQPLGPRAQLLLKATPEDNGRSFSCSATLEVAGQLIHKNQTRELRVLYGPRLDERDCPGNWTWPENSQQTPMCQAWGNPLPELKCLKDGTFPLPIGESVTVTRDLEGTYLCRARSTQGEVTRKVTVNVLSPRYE
T2 sequence (P05362 28-480 limits assumed): as above
murine ICAM-1 on bEnd.3 cells (mouse), sequence (P13597 28-537): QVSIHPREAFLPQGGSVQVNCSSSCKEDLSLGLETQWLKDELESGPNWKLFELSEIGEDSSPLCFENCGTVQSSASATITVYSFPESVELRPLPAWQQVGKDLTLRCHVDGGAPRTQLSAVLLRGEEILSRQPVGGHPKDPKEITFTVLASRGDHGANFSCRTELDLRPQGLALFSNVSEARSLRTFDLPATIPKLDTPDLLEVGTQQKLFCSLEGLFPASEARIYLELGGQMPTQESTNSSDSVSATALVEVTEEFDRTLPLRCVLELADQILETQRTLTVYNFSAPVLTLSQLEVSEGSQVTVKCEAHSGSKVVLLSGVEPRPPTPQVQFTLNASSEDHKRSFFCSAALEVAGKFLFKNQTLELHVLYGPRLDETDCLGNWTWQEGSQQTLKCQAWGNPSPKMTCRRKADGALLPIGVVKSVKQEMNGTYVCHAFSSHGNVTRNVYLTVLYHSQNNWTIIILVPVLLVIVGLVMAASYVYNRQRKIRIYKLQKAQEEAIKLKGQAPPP
T3 sequence (P05362 28-532): as the sequence (P05362 28-532) above
murine ICAM-1 (SPR), sequence (P13597 28-485 limits assumed): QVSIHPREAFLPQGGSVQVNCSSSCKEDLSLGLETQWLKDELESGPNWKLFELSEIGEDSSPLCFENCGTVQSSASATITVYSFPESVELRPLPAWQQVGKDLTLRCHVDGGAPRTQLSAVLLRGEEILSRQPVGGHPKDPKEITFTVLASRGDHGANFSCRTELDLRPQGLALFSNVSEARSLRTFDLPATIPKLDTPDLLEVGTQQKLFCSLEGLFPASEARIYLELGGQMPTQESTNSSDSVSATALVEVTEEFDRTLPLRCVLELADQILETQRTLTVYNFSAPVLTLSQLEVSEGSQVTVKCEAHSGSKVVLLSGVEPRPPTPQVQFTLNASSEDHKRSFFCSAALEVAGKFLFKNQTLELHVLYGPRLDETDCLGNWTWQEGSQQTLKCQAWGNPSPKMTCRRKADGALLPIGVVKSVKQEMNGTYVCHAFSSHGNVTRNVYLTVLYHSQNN

B1: Wild-type (WT) LFA-1 I domain (receptor)
chain: GNVDLVFLFDGSMSLQPDEFQKILDFMKDVMKKLSNTSYQFAAVQFSTSYKTEFDFSDYVKWKDPDALLKHVKHMLLLTNTFGAINYVATEVFREELGARPDATKVLIIITDGEATDSGNIDAAKDIIRYIIGIGKHFQTKESQETLHKFASKPASEFVKILDTFEKLKDLFTELQKKIYVIEG
notes: I domain of the αL subunit of human LFA-1; also called WT I domain; wild-type human I domain
The molecule B1 registered a Kd in experiment [1] of 1500 µM.

B2: F292S LFA-1 I domain (receptor)
chain: GNVDLVFLFDGSMSLQPDEFQKILDFMKDVMKKLSNTSYQFAAVQFSTSYKTEFDFSDYVKWKDPDALLKHVKHMLLLTNTFGAINYVATEVFREELGARPDATKVLIIITDGEATDSGNIDAAKDIIRYIIGIGKHFQTKESQETLHKFASKPASEFVKILDTSEKLKDLFTELQKKIYVIEG
Turning to B2, the Kd in experiment [2] was 1.24 µM.

B3: F292A LFA-1 I domain (receptor)
chain: GNVDLVFLFDGSMSLQPDEFQKILDFMKDVMKKLSNTSYQFAAVQFSTSYKTEFDFSDYVKWKDPDALLKHVKHMLLLTNTFGAINYVATEVFREELGARPDATKVLIIITDGEATDSGNIDAAKDIIRYIIGIGKHFQTKESQETLHKFASKPASEFVKILDTAEKLKDLFTELQKKIYVIEG
Molecule B3 registered a Kd in experiment [1] of 20 µM. This molecule also had a fold lower affinity than the scFv-based R6.5 CAR in experiment [3] of more than 1000 fold. In experiment [4], this molecule gave a time (hours) to 50% killing, 8505C target cells of 41.5 h; a time (hours) to 50% killing, 8505C/LPS target cells of 30.8 h; a time (hours) to 50% killing, HeLa target cells of 18.7 h.

B4: F265S/F292G (DM) LFA-1 I domain (receptor)
chain: GNVDLVFLFDGSMSLQPDEFQKILDFMKDVMKKLSNTSYQFAAVQFSTSYKTEFDFSDYVKWKDPDALLKHVKHMLLLTNTFGAINYVATEVFREELGARPDATKVLIIITDGEATDSGNIDAAKDIIRYIIGIGKHSQTKESQETLHKFASKPASEFVKILDTGEKLKDLFTELQKKIYVIEG
Turning to B4, the equilibrium dissociation constant (Kd) in experiment [1] is 0.006 µM; in the experiment with murine ICAM-1 (SPR), 0.002 µM. In addition, in experiment [5], the “fold higher affinity than the wild-type (WT) I domain” value is approximately 200000 fold.

B5: L289G LFA-1 I domain (receptor)
chain: GNVDLVFLFDGSMSLQPDEFQKILDFMKDVMKKLSNTSYQFAAVQFSTSYKTEFDFSDYVKWKDPDALLKHVKHMLLLTNTFGAINYVATEVFREELGARPDATKVLIIITDGEATDSGNIDAAKDIIRYIIGIGKHFQTKESQETLHKFASKPASEFVKIGDTFEKLKDLFTELQKKIYVIEG
As for B5, the Kd in experiment [2] is 0.196 µM.

B6: F292G LFA-1 I domain (receptor)
chain: GNVDLVFLFDGSMSLQPDEFQKILDFMKDVMKKLSNTSYQFAAVQFSTSYKTEFDFSDYVKWKDPDALLKHVKHMLLLTNTFGAINYVATEVFREELGARPDATKVLIIITDGEATDSGNIDAAKDIIRYIIGIGKHFQTKESQETLHKFASKPASEFVKILDTGEKLKDLFTELQKKIYVIEG
Molecule B6 returned an equilibrium dissociation constant (Kd) in experiment [1] of 0.119 µM. In experiment [4], this molecule showed a time (hours) to 50% killing, 8505C target cells of 27.3 h; a time (hours) to 50% killing, 8505C/LPS target cells of 24 h; a time (hours) to 50% killing, HMEC target cells of 21.1 h; a time (hours) to 50% killing, HeLa target cells of 14.9 h. This molecule also returned a time (hours) to 50% killing, bEND3 target cells in experiment [6] of 16.2 h.

B7: I309T LFA-1 I domain (receptor)
chain: GNVDLVFLFDGSMSLQPDEFQKILDFMKDVMKKLSNTSYQFAAVQFSTSYKTEFDFSDYVKWKDPDALLKHVKHMLLLTNTFGAINYVATEVFREELGARPDATKVLIIITDGEATDSGNIDAAKDIIRYIIGIGKHFQTKESQETLHKFASKPASEFVKILDTFEKLKDLFTELQKKIYVTEG
As to B7, the dissociation constant (Kd) in experiment [2] is 127 µM.

B8: I288N LFA-1 I domain (receptor)
chain: GNVDLVFLFDGSMSLQPDEFQKILDFMKDVMKKLSNTSYQFAAVQFSTSYKTEFDFSDYVKWKDPDALLKHVKHMLLLTNTFGAINYVATEVFREELGARPDATKVLIIITDGEATDSGNIDAAKDIIRYIIGIGKHFQTKESQETLHKFASKPASEFVKNLDTFEKLKDLFTELQKKIYVIEG
B8: in experiment [2], the equilibrium dissociation constant (Kd) was 202 µM.

B9: L295A LFA-1 I domain (receptor)
chain: GNVDLVFLFDGSMSLQPDEFQKILDFMKDVMKKLSNTSYQFAAVQFSTSYKTEFDFSDYVKWKDPDALLKHVKHMLLLTNTFGAINYVATEVFREELGARPDATKVLIIITDGEATDSGNIDAAKDIIRYIIGIGKHFQTKESQETLHKFASKPASEFVKILDTFEKAKDLFTELQKKIYVIEG
As to B9, the Kd in experiment [2] was 37 µM.

B10: F265S LFA-1 I domain (receptor)
chain: GNVDLVFLFDGSMSLQPDEFQKILDFMKDVMKKLSNTSYQFAAVQFSTSYKTEFDFSDYVKWKDPDALLKHVKHMLLLTNTFGAINYVATEVFREELGARPDATKVLIIITDGEATDSGNIDAAKDIIRYIIGIGKHSQTKESQETLHKFASKPASEFVKILDTFEKLKDLFTELQKKIYVIEG
Regarding B10, the Kd in experiment [1] was found to be 0.145 µM.

B11: TM (F265S/F292G/G311C) I domain CAR (receptor, part only; not given: Tag, hinge, transmembrane and signaling domains, not shown: another chain or arm of the molecule; a dimerising Fc or GST; small tags and cut ends)
chain: ECIKGNVDLVFLFDGSMSLQPDEFQKILDFMKDVMKKLSNTSYQFAAVQFSTSYKTEFDFSDYVKWKDPDALLKHVKHMLLLTNTFGAINYVATEVFREELGARPDATKVLIIITDGEATDSGNIDAAKDIIRYIIGIGKHSQTKESQETLHKFASKPASEFVKILDTGEKLKDLFTELQKKIYVIECTS
modifications: Disulfide bond between Cys-125 (chain position 2) and the introduced Cys-311 (chain position 188), per paragraph 45.
In experiment [4], B11 yielded a time (hours) to 50% killing, 8505C target cells of 17.1 h; a time (hours) to 50% killing, 8505C/-ICAM-1 target cells of 32.6 h; a time (hours) to 50% killing, 8505C/LPS target cells of 15.1 h; a time (hours) to 50% killing, HMEC target cells of 13.4 h. This molecule also yielded a time (hours) to 50% killing, HeLa target cells in experiment [4] of 10.8 h. For the same molecule, in experiment [6], the time (hours) to 50% killing, bEND3 target cells stood at 13 h.

B12: F265S/F292G/G311C (TM) LFA-1 I domain (receptor)
chain: ECIKGNVDLVFLFDGSMSLQPDEFQKILDFMKDVMKKLSNTSYQFAAVQFSTSYKTEFDFSDYVKWKDPDALLKHVKHMLLLTNTFGAINYVATEVFREELGARPDATKVLIIITDGEATDSGNIDAAKDIIRYIIGIGKHSQTKESQETLHKFASKPASEFVKILDTGEKLKDLFTELQKKIYVIECTS
modifications: disulfide bond between Cys-311 (G311C) and naturally unpaired Cys-125
notes: also called triple mutant
The molecule B12 registered a Kd in experiment [1] of approximately 0.001 µM.

B13: R6.5 (mouse anti-human ICAM-1 monoclonal antibody from hybridoma; scFv derived from it) (antibody, V domains shown)
VH: QVQLQQSGPELVRPGVSVKISCKGSGYTFIDYAIHWVKESHAKSLEWIGVISAYSGDTNYNQKFKGKATMTVDKSSNTAYLELARLTSEDSAIYYCARGGWLLLSFDYWGQGTTLTVSS
VL: DVVMTQSPLSLPVSLGDQASISCRSSQSLVHSNGNNYLHWYLQKSGQAPKLLIYKVSNRFSGVPDRFSGSGSGTDFTLKISRVEAEDLGVYFCSQSTHVPLTFGGGTKLEIK
As to B13, the Kd in experiment [7] is 0.01 µM.
